{"source": "patent US20180291343", "key": {"[1]": {"tested_on": "TALEN Beta2M T01 RIGHT (artificial)", "experiment": "cell_activity", "details": "primary T cells, 10 ug TALEN mRNA as pair with left monomer, 3 days post electroporation; 38% at 2 ug; untransfected nearly 100% positive"}, "[2]": {"tested_on": "TALEN Beta2M T01 LEFT (artificial)", "experiment": "cell_activity", "details": "primary T cells, 10 ug TALEN mRNA as pair with right monomer, 3 days post electroporation; 38% at 2 ug; untransfected nearly 100% positive"}}}
{"sequence": "TTCTGGCCTGGAGGCTA (double strand) [B2M T01 target, right half-site]", "values": [{"measurement": "activity (% beta2-m negative cells)", "setting": "[1]", "result": 80}]}
{"sequence": "TGGCCTTAGCTGTGCTC (double strand) [B2M T01 target, left half-site]", "values": [{"measurement": "activity (% beta2-m negative cells)", "setting": "[2]", "result": 80}]}
